Values quoted from earlier work as cited in PMC9331682.

Molecular target: PD-1 (Homo sapiens) (UniProt Q15116)
Sequence (Q15116 25-170): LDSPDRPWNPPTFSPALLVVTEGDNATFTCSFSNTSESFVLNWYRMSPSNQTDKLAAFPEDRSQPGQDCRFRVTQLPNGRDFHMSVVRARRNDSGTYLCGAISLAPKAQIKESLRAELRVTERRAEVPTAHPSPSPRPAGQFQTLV

Kd: 0.3 nM
Substance: Dostarlimab
